molecular target: Dnmt3a (Homo sapiens) (UniProt Q9Y6K1); assay: not given; details: cited from earlier work

| Substance | Kd [nM] |
| --- | --- |
| MPP8 chromodomain (from UniProt Q99549) | 12000 |

molecular target: MPP8 chromodomain (CD, residues 55-116) (human) (UniProt Q99549); assay: ITC; 750 uM peptide in the syringe titrated into 50 uM MPP8 CD in the cell; 50 mM HEPES pH 7.4, 0.1 M NaCl, 0.5 mM TCEP, 25 °C; single-site model; details: not given

| Substance | Kd [nM] |
| --- | --- |
| ATF7IP N-terminal tail peptide trimethylated at lysine 16 | 193 |
| G9a peptide trimethylated at K185 | 1310 |
| GLP peptide residues 199-211 with lysine 205 trimethylated (from UniProt Q9H9B1 199-211) | 337 |
| Histone H3 peptide trimethylated at lysine 9 | 769 |
| Histone H3 peptide trimethylated at lysine 27 | > 50000 |
| SETDB1 peptide trimethylated at K1170 | 1550 |
| SETDB1 peptide trimethylated at K1178 | > 50000 |
